125 sequences from the supplement of paper PMC9112550, “Optimization of the antimicrobial peptide Bac7 by deep mutational scanning” (BMC Biology, 2022) can be followed below.
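Also: peptides expressed intracellularly from a pBAD plasmid library in pooled LB shake-flask culture, induced with 0.3% L-arabinose, DNA abundance read by NGS, three biological replicates, DESeq2 with apeglm shrinkage.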

The series concerns Escherichia coli TOP10. Briefly: shrunken log2 fold change of peptide-encoding DNA abundance (4.5 h post-induction vs induction); higher = less antimicrobial activity (less host growth inhibition). To be noted: time post-induction: 4.5 h; library: site-saturation at positions 5, 18, 19, 20.
On to RRIRFRPPRLPRPRPRPWCDPRP, for which the “shrunken log2 fold change” value is -0.329. As for RRIRFRPPRLPRPRPRPKNTPRP, the figure is -0.487; as for RRIRLRPPRLPRPRPRPDDIPRP, -0.0521; as for RRIRQRPPRLPRPRPRPEAQPRP, 0.285. For the sequence RRIRQRPPRLPRPRPRPVYHPRP, the “shrunken log2 fold change” value was -0.83. As to RRIRMRPPRLPRPRPRPELRPRP, the “shrunken log2 fold change” value worked out at 2.02.

RRIRMRPPRLPRPRPRPIPSPRP: the “shrunken log2 fold change” value amounted to 0.0101.

For the sequence RRIRPRPPRLPRPRPRPGYVPRP, the “shrunken log2 fold change” value is -0.401. RRIRWRPPRLPRPRPRPFHIPRP: the “shrunken log2 fold change” value is -0.655. Under RRIRDRPPRLPRPRPRPQLMPRP stands 0.419. Regarding RRIRMRPPRLPRPRPRPTVDPRP, the “shrunken log2 fold change” value stood at 0.00715. Regarding RRIRPRPPRLPRPRPRPYIVPRP, the “shrunken log2 fold change” value was -0.15.

Consider RRIRQRPPRLPRPRPRPQLHPRP, for which the “shrunken log2 fold change” value is -0.237. In the case of RRIRIRPPRLPRPRPRPWVYPRP, the “shrunken log2 fold change” value was -0.341. Consider RRIRYRPPRLPRPRPRPCHCPRP, for which the “shrunken log2 fold change” value was -0.0269.

For the sequence RRIRARPPRLPRPRPRPVAMPRP, the “shrunken log2 fold change” value came out at 0.383. For the sequence RRIRWRPPRLPRPRPRPCVGPRP, the “shrunken log2 fold change” value is 0.352. Under RRIRYRPPRLPRPRPRPIGWPRP stands 0.11; under RRIRQRPPRLPRPRPRPNQLPRP, -0.499; under RRIRTRPPRLPRPRPRPWLDPRP, -0.181. Under RRIRNRPPRLPRPRPRPNFIPRP stands -0.105. As for RRIRARPPRLPRPRPRPDNHPRP, the figure is -0.0167; as for RRIRKRPPRLPRPRPRPCLCPRP, -0.138; as for RRIRSRPPRLPRPRPRPGHHPRP, -0.0988. Turning to RRIRQRPPRLPRPRPRPPDAPRP, the “shrunken log2 fold change” value is 0.228. Under RRIRTRPPRLPRPRPRPFVWPRP stands 0.00322; under RRIRRRPPRLPRPRPRPFTMPRP, -0.198.

With RRIRTRPPRLPRPRPRPQWIPRP, the “shrunken log2 fold change” value is -0.809. In the case of RRIRARPPRLPRPRPRPGWEPRP, the “shrunken log2 fold change” value turned out to be 0.274. As for RRIRFRPPRLPRPRPRPGIVPRP, the figure is -0.0228; as for RRIRWRPPRLPRPRPRPWLLPRP, -0.0799; as for RRIRHRPPRLPRPRPRPTIIPRP, -0.494. As to RRIRWRPPRLPRPRPRPCGSPRP, the “shrunken log2 fold change” value is -0.0157. With RRIRGRPPRLPRPRPRPFLYPRP, the “shrunken log2 fold change” value is -0.11. As for RRIRFRPPRLPRPRPRPELWPRP, the figure is 0.677. As for RRIRFRPPRLPRPRPRPKEPPRP, the figure is -0.135. For the sequence RRIRKRPPRLPRPRPRPVRCPRP, the “shrunken log2 fold change” value was 0.746.

Take RRIRKRPPRLPRPRPRPHLHPRP: the “shrunken log2 fold change” value was found to be 0.265. On to RRIRHRPPRLPRPRPRPPMYPRP, for which the “shrunken log2 fold change” value is -0.739. With RRIRARPPRLPRPRPRPEFLPRP, the “shrunken log2 fold change” value was found to be 0.465.

Take RRIRTRPPRLPRPRPRPSDAPRP: the “shrunken log2 fold change” value is -0.174. With RRIRIRPPRLPRPRPRPQEMPRP, the “shrunken log2 fold change” value is -0.379.

For the sequence RRIRTRPPRLPRPRPRPGSDPRP, the “shrunken log2 fold change” value came to 0.424. As for RRIRCRPPRLPRPRPRPVEYPRP, the figure is -0.0499; as for RRIRMRPPRLPRPRPRPYSTPRP, -0.137; as for RRIRCRPPRLPRPRPRPLLKPRP, -0.185. As for RRIRIRPPRLPRPRPRPEEEPRP, the figure is -0.031; as for RRIRLRPPRLPRPRPRPGYVPRP, -0.17. As for RRIRGRPPRLPRPRPRPMCTPRP, the figure is 2.37; as for RRIRERPPRLPRPRPRPSPLPRP, -0.0982. For RRIRMRPPRLPRPRPRPNHFPRP, the “shrunken log2 fold change” value was -0.436.

On to RRIRARPPRLPRPRPRPDDCPRP, for which the “shrunken log2 fold change” value was determined as 0.167. Turning to RRIRERPPRLPRPRPRPRQVPRP, the “shrunken log2 fold change” value is -0.0483. RRIRMRPPRLPRPRPRPGNPPRP: the “shrunken log2 fold change” value is 0.639. As for RRIRARPPRLPRPRPRPPKIPRP, the figure is 0.327; as for RRIRERPPRLPRPRPRPHAPPRP, -0.0944; as for RRIRPRPPRLPRPRPRPFHSPRP, -0.153. As for RRIRCRPPRLPRPRPRPNHCPRP, the figure is -0.551.

Turning to RRIRTRPPRLPRPRPRPHVFPRP, the “shrunken log2 fold change” value is -0.119. RRIRHRPPRLPRPRPRPILYPRP: the “shrunken log2 fold change” value is -0.123.

For the sequence RRIRARPPRLPRPRPRPCRYPRP, the “shrunken log2 fold change” value is -0.215. For the sequence RRIRRRPPRLPRPRPRPSHEPRP, the “shrunken log2 fold change” value is -0.252. As for RRIRERPPRLPRPRPRPFHRPRP, the figure is -0.182; as for RRIRCRPPRLPRPRPRPQRRPRP, -0.023; as for RRIRWRPPRLPRPRPRPFSLPRP, 0.141. As for RRIRFRPPRLPRPRPRPHTTPRP, the “shrunken log2 fold change” value was -0.155. Take RRIRHRPPRLPRPRPRPSALPRP: the “shrunken log2 fold change” value was -0.243. Under RRIRIRPPRLPRPRPRPWWNPRP stands -0.0623; under RRIRRRPPRLPRPRPRPRGVPRP, 0.816.

In the case of RRIRSRPPRLPRPRPRPEENPRP, the “shrunken log2 fold change” value worked out at 0.64. As for RRIRQRPPRLPRPRPRPDRPPRP, the figure is 0.00639; as for RRIRQRPPRLPRPRPRPWWCPRP, -0.105; as for RRIRERPPRLPRPRPRPEAFPRP, 0.0868. As for RRIRNRPPRLPRPRPRPGRLPRP, the figure is -0.0294; as for RRIRGRPPRLPRPRPRPRYEPRP, 0.409. For the sequence RRIRIRPPRLPRPRPRPIGCPRP, the “shrunken log2 fold change” value is -0.00783. As for RRIRMRPPRLPRPRPRPRKEPRP, the “shrunken log2 fold change” value is 0.704. For RRIRDRPPRLPRPRPRPRMTPRP, the “shrunken log2 fold change” value is 0.212.

On to RRIRVRPPRLPRPRPRPIFGPRP, for which the “shrunken log2 fold change” value is -0.015. As for RRIRSRPPRLPRPRPRPKTMPRP, the figure is 0.0109; as for RRIRFRPPRLPRPRPRPMILPRP, -0.29. With RRIRDRPPRLPRPRPRPWHWPRP, the “shrunken log2 fold change” value came out at 0.00118. For the sequence RRIRHRPPRLPRPRPRPYLGPRP, the “shrunken log2 fold change” value was -0.403. Under RRIRHRPPRLPRPRPRPRDGPRP stands 0.84; under RRIRWRPPRLPRPRPRPYWLPRP, -0.0807; under RRIRRRPPRLPRPRPRPHHHPRP, -0.161. Under RRIRFRPPRLPRPRPRPLSTPRP stands -0.47. Regarding RRIRFRPPRLPRPRPRPAQFPRP, the “shrunken log2 fold change” value was 0.156. Under RRIRYRPPRLPRPRPRPNGCPRP stands -0.000687; under RRIRARPPRLPRPRPRPFHEPRP, -0.166; under RRIRERPPRLPRPRPRPRNWPRP, -0.0255.

As to RRIRVRPPRLPRPRPRPEPTPRP, the “shrunken log2 fold change” value came out at 0.0442.

As to RRIRGRPPRLPRPRPRPCIWPRP, the “shrunken log2 fold change” value amounted to 0.208.

For RRIRTRPPRLPRPRPRPSQMPRP, the “shrunken log2 fold change” value is -0.607. Regarding RRIRYRPPRLPRPRPRPNEGPRP, the “shrunken log2 fold change” value is -0.363. As for RRIRPRPPRLPRPRPRPQVCPRP, the figure is 0.129; as for RRIRWRPPRLPRPRPRPQSYPRP, -0.0988. In the case of RRIRPRPPRLPRPRPRPEDCPRP, the “shrunken log2 fold change” value is -0.0873.

Take RRIRSRPPRLPRPRPRPEVWPRP: the “shrunken log2 fold change” value worked out at 0.779. On to RRIRYRPPRLPRPRPRPDYEPRP, for which the “shrunken log2 fold change” value is -0.105. Under RRIRDRPPRLPRPRPRPARIPRP stands 0.136. For the sequence RRIRQRPPRLPRPRPRPDYMPRP, the “shrunken log2 fold change” value was -0.453. With RRIRIRPPRLPRPRPRPVVVPRP, the “shrunken log2 fold change” value is -0.0561. For the sequence RRIRLRPPRLPRPRPRPHNWPRP, the “shrunken log2 fold change” value is -0.0581. On to RRIRSRPPRLPRPRPRPCMRPRP, for which the “shrunken log2 fold change” value amounted to 0.0526. As for RRIRHRPPRLPRPRPRPEFKPRP, the figure is 0.0348; as for RRIRLRPPRLPRPRPRPSLYPRP, -0.431. As for RRIRDRPPRLPRPRPRPFYWPRP, the figure is -0.0675; as for RRIRDRPPRLPRPRPRPEDRPRP, 0.0616; as for RRIRYRPPRLPRPRPRPYCAPRP, -0.899.

Turning to RRIRPRPPRLPRPRPRPVSTPRP, the “shrunken log2 fold change” value was 0.13.

In the case of RRIRPRPPRLPRPRPRPAIRPRP, the “shrunken log2 fold change” value was found to be 0.0298. Consider RRIRQRPPRLPRPRPRPEVPPRP, for which the “shrunken log2 fold change” value is -0.00133. As for RRIRIRPPRLPRPRPRPYDHPRP, the figure is -0.285; as for RRIRVRPPRLPRPRPRPTIQPRP, -0.526; as for RRIRVRPPRLPRPRPRPQAIPRP, -0.0973. As for RRIRSRPPRLPRPRPRPDAKPRP, the figure is 0.0687. Take RRIRDRPPRLPRPRPRPRWCPRP: the “shrunken log2 fold change” value turned out to be 0.33. Take RRIRSRPPRLPRPRPRPFRSPRP: the “shrunken log2 fold change” value amounted to 0.00887. Under RRIRERPPRLPRPRPRPGVFPRP stands 0.248; under RRIRFRPPRLPRPRPRPIAPPRP, 0.0659. Under RRIRVRPPRLPRPRPRPVRKPRP stands 0.274. Under RRIRYRPPRLPRPRPRPEKQPRP stands -0.000925; under RRIRSRPPRLPRPRPRPNHPPRP, -0.0712. For RRIRDRPPRLPRPRPRPAWFPRP, the “shrunken log2 fold change” value worked out at 0.118.
